Source: patent US20260001928A1 (CORTERIA PHARMACEUTICALS, priority 2022, published 2026)
*1 amine or outer side, *2 acyl side, *3 side chain or, on linkers, in order; H or OH if unused. Where no end group is shown, it is not given here. Side-chain parts run from the residue outwards. [ ]: non-standard residue; d: D form. The star is where a group is joined. C18 diacid = O=C(O)CCCCCCCCCCCCCCCCC(=O)*; C16 diacid = O=C(O)CCCCCCCCCCCCCCC(=O)*; γGlu = O=C(O)[C@H](CCC(=O)[*:2])N[*:1]; NMeI = CC[C@H](C)[C@H](NC)C(=O)O; Isovaleryl = CC(C)CC(=O)*; Pentanoyl = CCCCC(=O)*; Aib = CC(C)(N)C(=O)O

T1: CRF1R receptor (UniProt P34998 24-415, limits assumed)
T1 sequence (looked up): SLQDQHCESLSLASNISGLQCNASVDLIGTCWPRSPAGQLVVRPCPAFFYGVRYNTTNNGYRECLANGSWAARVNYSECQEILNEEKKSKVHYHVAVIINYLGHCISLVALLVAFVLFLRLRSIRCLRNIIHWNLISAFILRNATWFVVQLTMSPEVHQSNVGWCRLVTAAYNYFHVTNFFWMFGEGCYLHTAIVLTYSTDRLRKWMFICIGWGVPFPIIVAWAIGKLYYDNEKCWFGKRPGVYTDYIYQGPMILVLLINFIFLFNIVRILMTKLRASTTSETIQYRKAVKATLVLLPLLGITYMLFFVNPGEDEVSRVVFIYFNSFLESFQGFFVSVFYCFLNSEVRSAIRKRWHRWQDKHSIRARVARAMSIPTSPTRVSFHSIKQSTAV

B1: SEQ ID NO 9 (peptide)
peptide: Isovaleryl-VLSLD[dV]PIKLK([γGlu-C16 diacid])QILLKQERQKKQREQAEKNKQILEQV-NH2
SMILES: CC[C@H](C)[C@H](NC(=O)[C@H](CCC(N)=O)NC(=O)[C@H](CCCCNC(=O)CC[C@H](NC(=O)CCCCCCCCCCCCCCC(=O)O)C(=O)O)NC(=O)[C@H](CC(C)C)NC(=O)[C@H](CCCCN)NC(=O)[C@@H](NC(=O)[C@@H]1CCCN1C(=O)[C@H](NC(=O)[C@H](CC(=O)O)NC(=O)[C@H](CC(C)C)NC(=O)[C@H](CO)NC(=O)[C@H](CC(C)C)NC(=O)[C@@H](NC(=O)CC(C)C)C(C)C)C(C)C)[C@@H](C)CC)C(=O)N[C@@H](CC(C)C)C(=O)N[C@@H](CC(C)C)C(=O)N[C@@H](CCCCN)C(=O)N[C@@H](CCC(N)=O)C(=O)N[C@@H](CCC(=O)O)C(=O)N[C@@H](CCCNC(=N)N)C(=O)N[C@@H](CCC(N)=O)C(=O)N[C@@H](CCCCN)C(=O)N[C@@H](CCCCN)C(=O)N[C@@H](CCC(N)=O)C(=O)N[C@@H](CCCNC(=N)N)C(=O)N[C@@H](CCC(=O)O)C(=O)N[C@@H](CCC(N)=O)C(=O)N[C@@H](C)C(=O)N[C@@H](CCC(=O)O)C(=O)N[C@@H](CCCCN)C(=O)N[C@@H](CC(N)=O)C(=O)N[C@@H](CCCCN)C(=O)N[C@@H](CCC(N)=O)C(=O)N[C@H](C(=O)N[C@@H](CC(C)C)C(=O)N[C@@H](CCC(=O)O)C(=O)N[C@@H](CCC(N)=O)C(=O)N[C@H](C(N)=O)C(C)C)[C@@H](C)CC
B2: SEQ ID NO 192 (peptide)
peptide: [NMeI]VLSLD[dV]PIGLK([γGlu-C18 diacid])KILLEQEKQKKQREQAETN[Aib]QILAQV-NH2
modifications: N-terminus assumed
SMILES: CC[C@H](C)[C@H](NC)C(=O)N[C@H](C(=O)N[C@@H](CC(C)C)C(=O)N[C@@H](CO)C(=O)N[C@@H](CC(C)C)C(=O)N[C@@H](CC(=O)O)C(=O)N[C@@H](C(=O)N1CCC[C@H]1C(=O)N[C@H](C(=O)NCC(=O)N[C@@H](CC(C)C)C(=O)N[C@@H](CCCCNC(=O)CC[C@H](NC(=O)CCCCCCCCCCCCCCCCC(=O)O)C(=O)O)C(=O)N[C@@H](CCCCN)C(=O)N[C@H](C(=O)N[C@@H](CC(C)C)C(=O)N[C@@H](CC(C)C)C(=O)N[C@@H](CCC(=O)O)C(=O)N[C@@H](CCC(N)=O)C(=O)N[C@@H](CCC(=O)O)C(=O)N[C@@H](CCCCN)C(=O)N[C@@H](CCC(N)=O)C(=O)N[C@@H](CCCCN)C(=O)N[C@@H](CCCCN)C(=O)N[C@@H](CCC(N)=O)C(=O)N[C@@H](CCCNC(=N)N)C(=O)N[C@@H](CCC(=O)O)C(=O)N[C@@H](CCC(N)=O)C(=O)N[C@@H](C)C(=O)N[C@@H](CCC(=O)O)C(=O)N[C@H](C(=O)N[C@@H](CC(N)=O)C(=O)NC(C)(C)C(=O)N[C@@H](CCC(N)=O)C(=O)N[C@H](C(=O)N[C@@H](CC(C)C)C(=O)N[C@@H](C)C(=O)N[C@@H](CCC(N)=O)C(=O)N[C@H](C(N)=O)C(C)C)[C@@H](C)CC)[C@@H](C)O)[C@@H](C)CC)[C@@H](C)CC)C(C)C)C(C)C
B3: SEQ ID NO 193 (peptide)
peptide: Pentanoyl-VLSLD[dV]PIKLK([γGlu-C18 diacid])KILLEQEKQKKQREQAETN[Aib]QILAQV-NH2
SMILES: CCCCC(=O)N[C@H](C(=O)N[C@@H](CC(C)C)C(=O)N[C@@H](CO)C(=O)N[C@@H](CC(C)C)C(=O)N[C@@H](CC(=O)O)C(=O)N[C@@H](C(=O)N1CCC[C@H]1C(=O)N[C@H](C(=O)N[C@@H](CCCCN)C(=O)N[C@@H](CC(C)C)C(=O)N[C@@H](CCCCNC(=O)CC[C@H](NC(=O)CCCCCCCCCCCCCCCCC(=O)O)C(=O)O)C(=O)N[C@@H](CCCCN)C(=O)N[C@H](C(=O)N[C@@H](CC(C)C)C(=O)N[C@@H](CC(C)C)C(=O)N[C@@H](CCC(=O)O)C(=O)N[C@@H](CCC(N)=O)C(=O)N[C@@H](CCC(=O)O)C(=O)N[C@@H](CCCCN)C(=O)N[C@@H](CCC(N)=O)C(=O)N[C@@H](CCCCN)C(=O)N[C@@H](CCCCN)C(=O)N[C@@H](CCC(N)=O)C(=O)N[C@@H](CCCNC(=N)N)C(=O)N[C@@H](CCC(=O)O)C(=O)N[C@@H](CCC(N)=O)C(=O)N[C@@H](C)C(=O)N[C@@H](CCC(=O)O)C(=O)N[C@H](C(=O)N[C@@H](CC(N)=O)C(=O)NC(C)(C)C(=O)N[C@@H](CCC(N)=O)C(=O)N[C@H](C(=O)N[C@@H](CC(C)C)C(=O)N[C@@H](C)C(=O)N[C@@H](CCC(N)=O)C(=O)N[C@H](C(N)=O)C(C)C)[C@@H](C)CC)[C@@H](C)O)[C@@H](C)CC)[C@@H](C)CC)C(C)C)C(C)C
B4: SEQ ID NO 194 (peptide)
peptide: Pentanoyl-VLSLD[dV]PIKLK([γGlu-C18 diacid])KILLEQEKQK[Aib]QREQAETN[Aib]QILAQV-NH2
SMILES: CCCCC(=O)N[C@H](C(=O)N[C@@H](CC(C)C)C(=O)N[C@@H](CO)C(=O)N[C@@H](CC(C)C)C(=O)N[C@@H](CC(=O)O)C(=O)N[C@@H](C(=O)N1CCC[C@H]1C(=O)N[C@H](C(=O)N[C@@H](CCCCN)C(=O)N[C@@H](CC(C)C)C(=O)N[C@@H](CCCCNC(=O)CC[C@H](NC(=O)CCCCCCCCCCCCCCCCC(=O)O)C(=O)O)C(=O)N[C@@H](CCCCN)C(=O)N[C@H](C(=O)N[C@@H](CC(C)C)C(=O)N[C@@H](CC(C)C)C(=O)N[C@@H](CCC(=O)O)C(=O)N[C@@H](CCC(N)=O)C(=O)N[C@@H](CCC(=O)O)C(=O)N[C@@H](CCCCN)C(=O)N[C@@H](CCC(N)=O)C(=O)N[C@@H](CCCCN)C(=O)NC(C)(C)C(=O)N[C@@H](CCC(N)=O)C(=O)N[C@@H](CCCNC(=N)N)C(=O)N[C@@H](CCC(=O)O)C(=O)N[C@@H](CCC(N)=O)C(=O)N[C@@H](C)C(=O)N[C@@H](CCC(=O)O)C(=O)N[C@H](C(=O)N[C@@H](CC(N)=O)C(=O)NC(C)(C)C(=O)N[C@@H](CCC(N)=O)C(=O)N[C@H](C(=O)N[C@@H](CC(C)C)C(=O)N[C@@H](C)C(=O)N[C@@H](CCC(N)=O)C(=O)N[C@H](C(N)=O)C(C)C)[C@@H](C)CC)[C@@H](C)O)[C@@H](C)CC)[C@@H](C)CC)C(C)C)C(C)C

Molecular target: T1, CRF1R receptor
Test: cell-based or functional assay

EC50 [nM]	Emax (% I) [%]	Binder
28.2	77	B1
–	19	B2
–	20	B3
–	10	B4

Molecular target: human corticotropin-releasing factor 2a (CRF2a receptor) (human), Q13324
Sequence (Q13324 20-411): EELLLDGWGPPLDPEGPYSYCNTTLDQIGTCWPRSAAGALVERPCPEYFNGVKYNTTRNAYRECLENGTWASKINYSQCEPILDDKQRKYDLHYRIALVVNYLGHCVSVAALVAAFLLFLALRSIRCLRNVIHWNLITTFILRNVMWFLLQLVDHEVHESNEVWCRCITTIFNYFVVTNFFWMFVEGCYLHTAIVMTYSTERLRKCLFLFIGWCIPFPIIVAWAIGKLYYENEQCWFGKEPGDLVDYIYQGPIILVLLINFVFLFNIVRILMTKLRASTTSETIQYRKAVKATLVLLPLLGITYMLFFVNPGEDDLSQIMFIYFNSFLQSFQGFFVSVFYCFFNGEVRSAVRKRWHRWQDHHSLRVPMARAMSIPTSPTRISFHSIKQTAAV
Test: cell-based or functional assay

EC50 [nM] (cAMP)	Binder
0.16	B1
0.11	B2
0.17	B3
0.44	B4
